# Data reported in patent US20240116985A1, “STAPLED PEPTIDES AND METHODS THEREOF” (priority 2020, published 2024).
# Starred links: 1 amine or outer side, 2 acyl side, 3 side chain; linkers in the order of their positions; H or OH if unused. Positions of bridges follow the written chain, without caps; N, C: chain ends. Non-standard residues stand in square brackets, D forms with d. Primed or numbered codes have the meaning given here. *: point of attachment. (SO2MorphCH2)TriAzDap = (S)-2-amino-3-(4-((1,1-dioxidothiomorpholino)methyl)-1H-1,2,3-triazol-1-yl)propanoic acid, O=C([C@H](Cn1cc(CN2CCS(=O)(=O)CC2)nn1)N[*:1])[*:2]; (CH2Ppz)TriAzDap = (S)-2-amino-3-(4-(piperazin-1-ylmethyl)-1H-1,2,3-triazol-1-yl)propanoic acid, O=C([C@H](Cn1cc(CN2CCN([*:3])CC2)nn1)N[*:1])[*:2]; PyrS2(3) = (S)-3-amino-1-((pent-4-en-1-yloxy)carbonyl)pyrrolidine-3-carboxylic acid, stapling residue, C=CCCCOC(=O)N1CC[C@@](N[*:1])(C(=O)[*:2])C1; PyrS2″ = (S)-3-amino-1-((pent-4-en-1-yloxy)carbonyl)pyrrolidine-3-carboxylic acid (stapling residue), C=CCCCOC(=O)N1CC[C@@](N[*:1])(C(=O)[*:2])C1; (CH2NMe2)TriAzDap = (S)-2-amino-3-(4-((dimethylamino)methyl)-1H-1,2,3-triazol-1-yl)propanoic acid, CN(C)Cc1cn(C[C@H](N[*:1])C(=O)[*:2])nn1; (MorphCH2)TriAzDap = (S)-2-amino-3-(4-(morpholinomethyl)-1H-1,2,3-triazol-1-yl)propanoic acid, O=C([C@H](Cn1cc(CN2CCOCC2)nn1)N[*:1])[*:2]; B5(18) = 2,2-bis(4-pentenyl)glycine (2-amino-2-(pent-4-en-1-yl)hept-6-enoic acid), stitching residue, C=CCCCC(CCCC=C)(N[*:1])C(=O)[*:2]; B5(4) = 2,2-bis(4-pentenyl)glycine = 2-amino-2-(pent-4-en-1-yl)hept-6-enoic acid (stitching residue), C=CCCCC(CCCC=C)(N[*:1])C(=O)[*:2]; B5(5) = 2,2-bis(4-pentenyl)glycine, 2-amino-2-(pent-4-en-1-yl)hept-6-enoic acid (stitching residue), C=CCCCC(CCCC=C)(N[*:1])C(=O)[*:2]; TfeGA = (S)-2-amino-3-((carboxymethyl)(2,2,2-trifluoroethyl)amino)propanoic acid, O=C([C@H](CN(CC(=O)[*:3])CC(F)(F)F)N[*:1])[*:2]; PyrS2 = (S)-3-amino-1-((pent-4-en-1-yloxy)carbonyl)pyrrolidine-3-carboxylic acid, C=CCCCOC(=O)N1CC[C@@](N[*:1])(C(=O)[*:2])C1; B5(19) = 2-amino-2-(pent-4-en-1-yl)hept-6-enoic acid (bis(4-pentenyl)glycine), C=CCCCC(CCCC=C)(N[*:1])C(=O)[*:2]; MorphAsn = (S)-2-amino-4-morpholino-4-oxobutanoic acid, O=C(C[C@H](N[*:1])C(=O)[*:2])N1CCOCC1; B5(3) = 2,2-bis(4-pentenyl)glycine (stitching residue), C=CCCCC(CCCC=C)(N[*:1])C(=O)[*:2]; B5 = 2-amino-2-(pent-4-en-1-yl)hept-6-enoic acid, C=CCCCC(CCCC=C)(N[*:1])C(=O)[*:2]; Me2Asn = listed as N4-methyl-L-asparagine, CNC(=O)C[C@H](N[*:1])C(=O)[*:2]; MeAsn = N4-methyl-L-asparagine, CNC(=O)C[C@H](N[*:1])C(=O)[*:2]; MeGln = N5-methyl-L-glutamine, CNC(=O)CC[C@H](N[*:1])C(=O)[*:2]; Phe(F5) = N[C@@H](Cc1c(F)c(F)c(F)c(F)c1F)C(=O)O; Phe(3-COOH) = N[C@@H](Cc1cccc(C(=O)O)c1)C(=O)O; Phe(2-CF3) = N[C@@H](Cc1ccccc1C(F)(F)F)C(=O)O; Phe(2-Cl) = N[C@@H](Cc1ccccc1Cl)C(=O)O; Bta = N[C@@H](Cc1csc2ccccc12)C(=O)O; Isobutyloxycarbonyl = CC(C)COC(=O)*; hTyr = N[C@@H](CCc1ccc(O)cc1)C(=O)O; αAllylPro = C=CC[C@@]1(C(=O)O)CCCN1; tBuAla = CC(C)(C)C[C@H](N)C(=O)O; 3Thi = N[C@@H](Cc1ccsc1)C(=O)O; Cha = N[C@@H](CC1CCCCC1)C(=O)O; Butoxycarbonyl = CCCCOC(=O)*; R5 = C=CCCC[C@@](C)(N)C(=O)O; S5 = C=CCCC[C@](C)(N)C(=O)O; 4ClBztA = not defined here; hSer = N[C@@H](CCO)C(=O)O; Ac5c = NC1(C(=O)O)CCCC1; Ac3c = NC1(C(=O)O)CC1; Aib = CC(C)(N)C(=O)O; Moc = COC(=O)*
# Target: full-length beta-Catenin (Uniprot ID P35222) (Homo sapiens (Human)) (UniProt P35222)
# Test: fluorescence polarization competition; 10 nM full-length beta-catenin, competitor 10 nM 5FAM-TCF4(10-53)
# full-length beta-Catenin (Uniprot ID P35222) (Homo sapiens (Human)), sequence (P35222 whole entry): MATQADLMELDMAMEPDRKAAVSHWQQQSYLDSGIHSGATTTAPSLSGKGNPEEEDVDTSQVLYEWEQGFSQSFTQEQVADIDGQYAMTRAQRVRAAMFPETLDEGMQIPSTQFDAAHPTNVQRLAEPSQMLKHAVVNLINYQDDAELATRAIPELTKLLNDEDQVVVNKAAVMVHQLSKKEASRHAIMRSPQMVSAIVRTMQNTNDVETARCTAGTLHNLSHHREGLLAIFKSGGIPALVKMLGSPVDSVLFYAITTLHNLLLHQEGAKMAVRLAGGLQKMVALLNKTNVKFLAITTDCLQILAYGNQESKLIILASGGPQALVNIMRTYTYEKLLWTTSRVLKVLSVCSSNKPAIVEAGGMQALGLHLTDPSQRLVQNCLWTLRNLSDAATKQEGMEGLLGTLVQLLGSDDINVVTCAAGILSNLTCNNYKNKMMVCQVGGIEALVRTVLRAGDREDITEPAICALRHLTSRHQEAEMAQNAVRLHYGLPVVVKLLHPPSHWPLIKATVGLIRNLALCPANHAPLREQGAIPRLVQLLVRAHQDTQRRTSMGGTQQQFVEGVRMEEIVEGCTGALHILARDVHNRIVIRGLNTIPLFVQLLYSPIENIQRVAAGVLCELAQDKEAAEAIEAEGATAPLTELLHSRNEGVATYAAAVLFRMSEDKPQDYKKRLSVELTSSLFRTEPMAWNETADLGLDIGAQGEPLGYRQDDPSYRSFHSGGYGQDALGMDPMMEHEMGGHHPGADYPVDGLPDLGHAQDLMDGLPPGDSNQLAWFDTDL
row,IC50,Binder
1,512 nM,"Ac-[αAllylPro]D[tBuAla][B5(5)]D[TfeGA]AA[(SO2MorphCH2)TriAzDap]L[PyrS2″][3Thi][Bta]Q-NH2 (staple 1-4, 4-11) [I-1860]"
2,1310 nM,"Ac-[αAllylPro]N[Cha][B5]DQTAFL[PyrS2]F[Bta][MorphAsn]-NH2 (staple 1-4, 4-11) [I-2503]"
3,19 nM,"Ac-[αAllylPro]D[tBuAla][B5(18)]D[Phe(3-COOH)]AAFA[PyrS2(3)][Phe(2-Cl)][Bta]S-NH2 (staple 1-4, 4-11) [I-1849]"
4,36 nM,"Ac-[αAllylPro]D[tBuAla][B5(4)]D[Phe(3-COOH)]QAFL[PyrS2″][Phe(2-CF3)][7ClBztA]A-NH2 (staple 1-4, 4-11) [I-2487]"
5,17 nM,"Ac-[αAllylPro]D[tBuAla][B5(18)]D[Phe(3-COOH)]AAFV[PyrS2(3)][Phe(2-Cl)][Bta]S-NH2 (staple 1-4, 4-11) [I-1850]"
6,114 nM,"Ac-[αAllylPro]N[tBuAla][B5(18)]D[Phe(3-COOH)]AAFL[PyrS2(3)][Phe(2-Cl)][Bta]S-NH2 (staple 1-4, 4-11) [I-1853]"
7,174 nM,"Ac-[αAllylPro]D[tBuAla][B5(4)]NT[Ac3c]AFN[PyrS2″][3Thi][Bta]Q-NH2 (staple 1-4, 4-11) [I-2492]"
8,1110 nM,"Ac-[αAllylPro]D[tBuAla][B5(5)]D[TfeGA]AA[(MorphCH2)TriAzDap]L[PyrS2″][3Thi][Bta]Q-NH2 (staple 1-4, 4-11; also: separately listed staple isomer composition) [I-1858]"

# The remaining lines, values behind:
row,Binder,IC50
1,"Ac-[αAllylPro]D[tBuAla][B5(4)]D[Phe(3-COOH)]QAFL[PyrS2″][Phe(2-CF3)][7FBztA]A-NH2 (staple 1-4, 4-11) [I-2489]",29 nM
2,"Ac-[αAllylPro]D[tBuAla][B5]NT[Aib]AF[MeAsn][PyrS2][3Thi][Bta]N-NH2 (staple 1-4, 4-11) [I-2497]",105 nM
3,"Ac-[αAllylPro]D[tBuAla][B5(5)]D[TfeGA]AA[(CH2Ppz)TriAzDap]L[PyrS2″][3Thi][Bta]Q-NH2 (staple 1-4, 4-11; also: separately listed staple isomer composition) [I-1857]",4020 nM
4,"Ac-[αAllylPro]D[tBuAla][B5(5)]D[TfeGA]AA[(CH2NMe2)TriAzDap]L[PyrS2″][3Thi][Bta]Q-NH2 (staple 1-4, 4-11; also: separately listed staple isomer composition) [I-1855]",849 nM
5,"Ac-[αAllylPro]D[tBuAla][B5]NT[Aib]AF[Me2Asn][PyrS2][3Thi][Bta]N-NH2 (staple 1-4, 4-11) [I-2496]",106 nM
6,"Ac-[αAllylPro]D[tBuAla][B5]NT[Aib]AFN[PyrS2][3Thi][Bta][MeAsn]-NH2 (staple 1-4, 4-11) [I-2495]",95 nM
7,"Ac-[αAllylPro]D[tBuAla][B5(4)]D[Phe(3-COOH)]QAFL[PyrS2″][Phe(2-CF3)][4ClBztA]A-NH2 (staple 1-4, 4-11; reading uncertain) [I-2491]",49 nM
8,"Ac-[αAllylPro]D[tBuAla][B5(18)]D[Phe(3-COOH)]AAFL[PyrS2(3)][Phe(2-Cl)][Bta]A-NH2 (staple 1-4, 4-11) [I-1851]",25 nM
9,"Ac-[αAllylPro]N[Cha][B5]DQ[hSer]AFL[PyrS2]F[Bta][MorphAsn]-NH2 (staple 1-4, 4-11) [I-2498]",449 nM
10,"Ac-[αAllylPro]D[tBuAla][B5(5)]D[TfeGA]AA[(MorphCH2)TriAzDap]L[PyrS2″][3Thi][Bta]Q-NH2 (staple 1-4, 4-11; also: separately listed staple isomer composition) [I-1859]",1110 nM
11,"Ac-[αAllylPro]N[Cha][B5]DQ[Me2Gln]AFL[PyrS2]F[Bta][MorphAsn]-NH2 (staple 1-4, 4-11) [I-2501]",154 nM
12,"Ac-[αAllylPro]D[tBuAla][B5]NT[Aib]AFN[PyrS2][3Thi][Bta][Me2Asn]-NH2 (staple 1-4, 4-11) [I-2494]",102 nM
13,"Ac-[αAllylPro]D[tBuAla][B5(18)]D[Phe(3-COOH)]AAFL[PyrS2(3)][Phe(2-Cl)][Bta]-NH2 (staple 1-4, 4-11) [I-1852]",48 nM
14,"Ac-[αAllylPro]N[Cha][B5]DQ[MeGln]AFL[PyrS2]F[Bta][MorphAsn]-NH2 (staple 1-4, 4-11) [I-2502]",214 nM
15,"Ac-[αAllylPro]D[tBuAla][B5(4)]NT[Ac5c]AFN[PyrS2″][3Thi][Bta]Q-NH2 (staple 1-4, 4-11) [I-2493]",267 nM

# Target: full-length beta-Catenin (Uniprot ID P35222) (Homo sapiens (Human)) (UniProt P35222)
# Test: fluorescence polarization competition against 5FAM-TCF4 10-53 on full-length beta-catenin
row,IC50,Binder
1,935 nM,"Ac-[αAllylPro]D[tBuAla][B5(19)]D[Phe(F5)]AAFL[PyrS2][3Thi][Bta]Q-NH2 (staple 1-4, 4-11) [I-1792]"
2,101 nM,"Ac-[αAllylPro]D[tBuAla][B5(19)]DYAAF[hSer][PyrS2][3Thi][Bta]Q-NH2 (staple 1-4, 4-11) [I-1783]"
3,182 nM,"Ac-[αAllylPro]D[tBuAla][B5(19)]D[Phe(F5)]AAF[hSer][PyrS2][3Thi][Bta]Q-NH2 (staple 1-4, 4-11) [I-1791]"
4,183 nM,"Ac-[αAllylPro]D[tBuAla][B5(19)]DWAAF[hSer][PyrS2][3Thi][Bta]Q-NH2 (staple 1-4, 4-11) [I-1789]"
5,52 nM,"Ac-[αAllylPro]D[tBuAla][B5(3)]DHAAF[hSer][PyrS2″][3Thi][Bta]Q-NH2 (staple 1-4, 4-11; not fully specified; printed as Ac-PL3-Asp-Npg-B5-Asp-His-Ala-Ala-Phe-Hse-PyrS2-3Thi-BztA-Gln-NH2) [I-1794]"
6,66 nM,"Moc-[αAllylPro]D[tBuAla][B5(4)]DDAAFQ[PyrS2″][3Thi][Bta]H-NH2 (staple 1-4, 4-11) [I-2362]"

# More lines, now with the values behind:
row,Binder,IC50
1,"Ac-[αAllylPro]D[tBuAla][B5(19)]D[hTyr]AAF[hSer][PyrS2][3Thi][Bta]Q-NH2 (staple 1-4, 4-11) [I-1786]",42 nM
2,"Isobutyloxycarbonyl-[αAllylPro]D[tBuAla][B5(4)]DDAAFQ[PyrS2″][3Thi][Bta]H-NH2 (staple 1-4, 4-11) [I-2364]",116 nM
3,"{3‑(allyloxy)benzoyl}-PD[tBuAla][B5(5)]D[TfeGA]AAFL[PyrS2″][3Thi][Bta]Q-NH2 (staple 4-11, N-4; also: -CH=CH- in each staple reduced to -CH2-CH2-) [I-2377]",978 nM
4,"Ac-[αAllylPro]D[tBuAla][B5(19)]DHAAF[hSer][PyrS2][3Thi][Bta]Q-NH2 (staple 1-4, 4-11; not fully specified; printed as Ac-PL3-Asp-Npg-B5-Asp-His-Ala-Ala-Phe-Hse-PyrS2-3Thi-BztA-Gln-NH2) [I-1793]",20 nM
5,"Ac-[αAllylPro]D[tBuAla][B5(19)]DWAAFN[PyrS2][3Thi][Bta]Q-NH2 (staple 1-4, 4-11) [I-1788]",58 nM
6,"Butoxycarbonyl-[αAllylPro]D[tBuAla][B5(4)]DDAAFQ[PyrS2″][3Thi][Bta]H-NH2 (staple 1-4, 4-11) [I-2363]",44 nM
7,"Ac-[αAllylPro]D[tBuAla][B5(19)]DYAAFL[PyrS2][3Thi][Bta]Q-NH2 (staple 1-4, 4-11) [I-1784]",528 nM
8,"Ac-[αAllylPro]D[tBuAla][S5]DD[Aib]AF[R5]A[3Thi][Bta][S5]A-NH2 (staple (positions not given here); not fully specified; printed as Ac-PL3-Asp-Npg-S5-Asp-Asp-Aib-Ala-Phe-R5-Ala-3Thi-BztA-S5-Ala-NH2; also: staple pairing among PL3 1, S5 4, R5 10, S5 14 not given here) [I-1781]",8450 nM
